Results on one molecule are retold here after paper PMC2175199 (The Journal of Cell Biology, 2000).

Experiment [1] deals with T1, XSA1 (Xenopus laevis (endogenous in egg …, UniProt Q9DGN1 1-1265)).
T1 sequence: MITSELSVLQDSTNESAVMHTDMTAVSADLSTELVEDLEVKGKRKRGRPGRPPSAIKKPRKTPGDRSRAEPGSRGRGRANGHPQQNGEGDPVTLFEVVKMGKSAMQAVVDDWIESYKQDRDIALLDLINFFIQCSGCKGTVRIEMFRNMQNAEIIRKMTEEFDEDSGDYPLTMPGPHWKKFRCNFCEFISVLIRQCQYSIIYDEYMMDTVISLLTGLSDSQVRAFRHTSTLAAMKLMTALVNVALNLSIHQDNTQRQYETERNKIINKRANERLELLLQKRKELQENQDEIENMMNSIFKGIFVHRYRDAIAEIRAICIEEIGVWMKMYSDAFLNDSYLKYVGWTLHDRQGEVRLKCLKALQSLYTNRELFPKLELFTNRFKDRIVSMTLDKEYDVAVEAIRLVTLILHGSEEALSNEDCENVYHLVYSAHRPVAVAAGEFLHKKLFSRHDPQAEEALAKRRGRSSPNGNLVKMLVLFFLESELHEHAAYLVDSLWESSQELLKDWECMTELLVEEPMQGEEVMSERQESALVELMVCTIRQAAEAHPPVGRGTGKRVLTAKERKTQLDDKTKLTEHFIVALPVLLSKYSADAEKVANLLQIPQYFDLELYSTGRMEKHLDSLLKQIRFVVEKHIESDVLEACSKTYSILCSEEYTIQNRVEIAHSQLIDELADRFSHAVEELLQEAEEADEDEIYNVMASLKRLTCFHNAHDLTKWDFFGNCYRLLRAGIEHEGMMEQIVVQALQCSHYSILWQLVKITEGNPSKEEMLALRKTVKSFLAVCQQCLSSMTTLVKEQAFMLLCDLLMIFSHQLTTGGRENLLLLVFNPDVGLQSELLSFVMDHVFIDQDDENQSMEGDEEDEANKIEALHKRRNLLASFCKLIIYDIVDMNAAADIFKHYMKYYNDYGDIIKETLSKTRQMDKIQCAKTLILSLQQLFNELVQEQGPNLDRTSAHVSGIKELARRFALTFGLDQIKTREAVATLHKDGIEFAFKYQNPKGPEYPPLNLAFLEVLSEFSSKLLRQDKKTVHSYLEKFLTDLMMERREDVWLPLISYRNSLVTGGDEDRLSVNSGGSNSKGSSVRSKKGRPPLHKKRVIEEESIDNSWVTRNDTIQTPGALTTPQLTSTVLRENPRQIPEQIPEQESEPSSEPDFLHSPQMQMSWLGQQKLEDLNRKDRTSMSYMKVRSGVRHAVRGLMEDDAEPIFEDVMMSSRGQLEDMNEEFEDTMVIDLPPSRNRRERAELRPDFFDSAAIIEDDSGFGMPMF
Description: co-IP.

Experiment [2] addresses T2, XSA2 (Xenopus laevis (endogenous in egg …, UniProt Q9DGN0 1-1194)).
T2 sequence: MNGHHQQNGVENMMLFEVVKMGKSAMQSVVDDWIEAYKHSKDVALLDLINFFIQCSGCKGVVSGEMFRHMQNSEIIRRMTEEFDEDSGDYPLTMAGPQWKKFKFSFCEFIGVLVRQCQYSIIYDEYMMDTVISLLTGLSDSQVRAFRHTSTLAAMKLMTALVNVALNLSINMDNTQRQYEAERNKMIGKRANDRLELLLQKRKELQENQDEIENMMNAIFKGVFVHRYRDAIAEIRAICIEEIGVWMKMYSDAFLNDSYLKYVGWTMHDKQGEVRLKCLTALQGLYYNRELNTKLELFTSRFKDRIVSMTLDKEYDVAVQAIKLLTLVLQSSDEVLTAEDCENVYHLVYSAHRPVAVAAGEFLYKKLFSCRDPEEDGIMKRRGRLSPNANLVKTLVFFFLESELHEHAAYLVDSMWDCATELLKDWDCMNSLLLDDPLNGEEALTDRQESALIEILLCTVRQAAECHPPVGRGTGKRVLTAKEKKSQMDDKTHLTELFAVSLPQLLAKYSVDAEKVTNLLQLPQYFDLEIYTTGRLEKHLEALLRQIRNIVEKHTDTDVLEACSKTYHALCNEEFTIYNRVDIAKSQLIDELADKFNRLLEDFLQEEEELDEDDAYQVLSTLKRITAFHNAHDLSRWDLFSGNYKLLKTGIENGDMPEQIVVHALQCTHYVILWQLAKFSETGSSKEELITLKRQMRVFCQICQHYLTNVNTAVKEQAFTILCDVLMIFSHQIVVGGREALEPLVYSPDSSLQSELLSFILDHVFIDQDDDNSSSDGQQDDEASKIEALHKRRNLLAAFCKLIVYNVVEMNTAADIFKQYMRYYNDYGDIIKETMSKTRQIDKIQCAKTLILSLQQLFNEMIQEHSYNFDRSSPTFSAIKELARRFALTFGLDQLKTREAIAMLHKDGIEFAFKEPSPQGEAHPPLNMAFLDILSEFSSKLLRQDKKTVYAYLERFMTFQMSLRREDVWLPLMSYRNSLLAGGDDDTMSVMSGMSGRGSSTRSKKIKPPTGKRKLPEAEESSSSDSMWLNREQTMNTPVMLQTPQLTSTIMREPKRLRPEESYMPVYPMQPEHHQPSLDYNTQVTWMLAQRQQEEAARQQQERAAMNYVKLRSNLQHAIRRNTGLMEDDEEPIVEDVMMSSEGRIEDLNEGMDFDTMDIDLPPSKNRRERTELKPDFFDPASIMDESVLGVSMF
Description: co-IP.

B1: XRAD21 (natural protein)
chain: MFYAHFVLSKRGPLAKIWLAAHWDKKLTKAHVFECNLESSVESIICPKVKMALRTSGHLLLGVVRIYHRKAKYLLADCNEAFIKIKMAFRPGVVDLPEENREAAYNAITLPEEFHDFDQPLPDLDDIDVAQQFSLNQSRVEEITMREEVSNINILQDNDFGDFGMDDREMMREGSAFEDDMLTTNASNLKLEPEQSTSQLNEKSNHLEYDDQYKDDNFGEGNEGGILDDKLLSNDAGGIFDDPPAMPEEGVAMPEQPVHDDLDDDDNVSMGAPDSPDSVDPVEPLPTMTDQTTLVPNEEEAFALEPIDITVKETKAKRKRKLIVDSVKELDSKTIRAQLSDYSDIVTTLDLAPPTKKLMMWKETGGVEKLFSLPAQPLWNTRLLKLFTRCLTPLVLDDLRKRRKGGEADNLDEFLKEFENPEVPREELRPQDVIDQPILEEASHLQESLMEGSRTHLDDTIMPPPPPKQGVKRDSLQMEPEPMPMMQEAEPQIEMPPPPLPPPLELPPEEPQSISDLIPELNLLPEKEKEKDEEEEEEEEDTTGTEQDQEERRWNKRTQQMLHGLQRVLAKTGAESISLLDLCRNTNRKQAAAKFYSFLVLKKQQAIELTQREPYSDIVATPGPRFHTV
On to B1, for which the “percent depleted from the extract by anti-XSA1” value in experiment [1] was approximately 90%. Also, the “percent depleted from the extract by anti-XSA2” value in experiment [2] is approximately 10%.
